In US20090297438A1 (published 2009):
Substitutions are numbered along the chain they refer to.

B1: anti-PSMA human monoclonal antibody 2C6 (antibody, V domains shown)
VH: EVQLVQSGSEVKKPGESLKISCKGSGYSFTNYWIGWVRQMPGKGLEWMGIIYPGDSDTRYSPSFQGQVTISADKSISTAYLQWSSLKASDTAMYYCASPGYTSSWTSFDYWGQGTLVTVSS
VL: EIVLTQSPATLSLSPGERATLSCRASQSVSSYLAWYQQKPGQAPRLLIYDASNRATGIPARFSGSGSGTDFTLTISSLEPEDFAVYYCQQRSNWPLFTFGPGTKVDIK
B2: anti-PSMA HuMAb antibody 2A10 conjugated to a toxin (antibody, V domains shown)
VH: EVQLVQSGAEVKKPGESLKISCKGSGYSFTSNWIGWVRQMPGKGLEWMGIIYPGDSDTRYSPSFQGQVTISADKSISTAYLQWSSLKASDTAMYYCARQTGFLWSSDLWGRGTLVTVSS
VL: AIQLTQSPSSLSASVGDRVTITCRASQDISSALAWYQQKPGKAPKLLIYDASSLESGVPSRFSGYGSGTDFTLTINSLQPEDFATYYCQQFNSYPLTFGGGTKVEIK
B3: anti-PSMA human monoclonal antibody 2F5 (antibody, V domains shown)
VH: B2 VH with S84N, S106F
VL: AIQLTQSPSSLSASVGDRVTITCRASQDISSALAWYQQKPGKAPKLLIYDASSLESGVPSRFSGSGSGTDFTLTISSLQPEDFATYYCQQFNSYPLTFGGGTKVEIKI
B4: anti-PSMA human monoclonal antibody 1C3 (antibody, V domains shown)
VH: QVQLVESGGGVVQPGRSLRLSCAASGFTFSSYAMHWVRQAPGKGLEWVAVISYDGNNKYYADSVKGRFTISRDNSKNTLYLQMNSLRAEDTAVYYCARAVPWGSRYYYYGMDVWGQGTTVTVSS
VL: B2 VL with D28G, P40S, Y49F, Y65S, N76S
B5: anti-PSMA human monoclonal antibody 2A10 (antibody, V domains shown)
VH: B2 VH
VL: B2 VL
notes: also called anti-PSMA HuMAb 2A10

Assays:
[1] = target: T1, PSMA immunopurified from LNCaP cells (human, UniProt Q04609 1-750); experiment: ELISA on PSMA immunopurified from LNCaP cells, HRP goat anti-human IgG (kappa chain-specific) detection
T1 construct: also called purified PSMA; immunopurified PSMA
T1 sequence (Q04609 whole entry): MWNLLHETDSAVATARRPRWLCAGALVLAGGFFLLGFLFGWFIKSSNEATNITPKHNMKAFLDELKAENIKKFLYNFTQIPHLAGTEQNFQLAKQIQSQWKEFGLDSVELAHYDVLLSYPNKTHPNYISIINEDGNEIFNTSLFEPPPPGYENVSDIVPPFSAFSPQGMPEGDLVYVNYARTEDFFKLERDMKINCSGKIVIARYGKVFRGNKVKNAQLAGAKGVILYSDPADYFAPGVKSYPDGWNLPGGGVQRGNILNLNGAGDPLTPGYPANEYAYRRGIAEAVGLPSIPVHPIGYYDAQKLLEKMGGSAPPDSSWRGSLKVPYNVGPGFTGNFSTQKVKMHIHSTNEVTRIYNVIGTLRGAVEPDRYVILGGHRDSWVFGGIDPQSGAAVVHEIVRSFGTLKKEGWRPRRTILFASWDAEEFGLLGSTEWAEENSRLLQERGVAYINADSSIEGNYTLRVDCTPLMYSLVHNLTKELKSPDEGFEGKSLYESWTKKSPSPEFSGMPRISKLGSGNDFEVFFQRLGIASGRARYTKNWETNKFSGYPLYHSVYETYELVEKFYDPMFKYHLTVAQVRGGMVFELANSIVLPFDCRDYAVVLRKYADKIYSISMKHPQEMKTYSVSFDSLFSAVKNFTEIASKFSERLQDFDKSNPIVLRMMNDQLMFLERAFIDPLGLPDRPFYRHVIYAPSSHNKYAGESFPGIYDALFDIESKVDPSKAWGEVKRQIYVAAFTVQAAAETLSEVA
Description: A comparison of anti-PSMA antibodies on binding to immunopurified PSMA was performed by standard ELISA to examine the specificity of binding for PSMA.
PSMA was immunopurified from LNCaP cells and tested for binding against the anti-PSMA human monoclonal antibodies 1C3, 2A10, 2F5, and 2C6. Standard ELISA procedures were performed. The anti-PSMA human monoclonal antibodies were added at a concentration of 5 μg/ml and titrated down at 1:2 serial dilutions. Goat-anti-human IgG (kappa chain-specific) polyclonal antibody conjugated with horseradish peroxidase (HRP) was used as secondary antibody. The human anti-PSMA monoclonal antibody 7F12 was used as a positive control and a blank was used as a negative control. The anti-PSMA human monoclonal antibodies 2A10 and 2F5 bound with high specificity to PSMA.

[2] = target: T2, human prostate specific membrane antigen (PSMA) on LNCaP prostate cancer cells (human, UniProt Q04609 1-750); experiment: flow cytometry on LNCaP cells, FITC-labeled anti-human IgG detection
T2 construct: whole, on cells; also called PSMA-expressing LNCaP cells
T2 sequence (Q04609 whole entry): as above
Description: The human PSMA-expressing prostate cancer cell line LNCaP was used to determine the specificity of anti-PSMA human monoclonal antibodies by flow cytometry. Binding of the 2F5, 2A10, and 2C6 anti-PSMA human monoclonal antibodies was assessed by incubating the LNCaP cells with the anti-PSMA human monoclonal antibodies at different concentrations. The cells were washed and binding was detected with a FITC-labeled anti-human IgG Ab. Flow cytometric analyses were performed using a FACScan flow cytometry (Becton Dickinson, San Jose, Calif.). The human anti-PSMA monoclonal antibody 7F12 (as described in PCT Publication WO 03/064606) was used as a positive control and a non-PSMA specific isotype control antibody was used as a negative control. The results are depicted in FIG. 9. The anti-PSMA human monoclonal antibodies 2F5, 2A10, and 2C6 bound specifically to the PSMA-expressing LNCaP cells.

[3] = target: T2, human prostate specific membrane …; experiment: cell-based or functional assay
[4] = target: T2, human prostate specific membrane …; experiment: Scatchard analysis, 125I-labelled antibody on LNCaP cells
Description: The binding affinity of the 2A10 antibody for the PSMA-expressing prostate cancer LNCaP cell line was tested using a Scatchard analysis.
LNCaP cells were obtained from ATCC(CRL-1740) and grown in RPMI media containing 10% fetal bovine serum (FBS). The cells were trypsinized and washed once in Tris based binding buffer (24 mM Tris pH 7.2, 137 mM NaCl, 2.7 mM KCl, 2mM Glucose, 1 mM CaCl₂, 1 mM MgCl₂, 0.1% BSA) and the cells were adjusted to 2×10⁶ cells/ml in binding buffer. Millipore plates (MAFB NOB) were coated with 1% nonfat dry milk in water and stored a 4° C. overnight. The plates were washed three times with 0.2 ml of binding buffer. Fifty microliters of buffer alone was added to the maximum binding wells (total binding). Twenty-five microliters of buffer alone was added to the control wells (non-specific binding). Varying concentration of ¹²⁵I-anti-PSMA antibody was added to all wells in a volume of 25 μl . Varying concentrations of unlabeled antibody at 100 fold excess was added in a volume of 25 μl to control wells and 25 μl of LNCaP cells (2×10⁶ cells/ml) in binding buffer were added to all wells. The plates were incubated for 2 hours at 200 RPM on a shaker at 4° C. […] The filters were removed and counted in a gamma counter. […]

[5] = target: T2, human prostate specific membrane …; experiment: radioligand competition on LNCaP cells: unlabeled antibody varied against a fixed concentration of 125I-2A10
Description: (§1) LNCaP cells were obtained from ATCC(CRL-1740) and grown in RPMI media containing 10% fetal bovine serum (FBS). The cells were trypsinized and washed once in Tris based binding buffer (24 mM Tris pH 7.2, 137 mM NaCl, 2.7 mM KCl, 2 mM Glucose, 1 mM CaCl₂, IMM MgCl₂, 0.1% BSA) and the cells were adjusted to 2×10⁶ cells/ml in binding buffer. Millipore plates (MAFB NOB) were coated with 1% nonfat dry milk in water and stored a 4° C. overnight. The plates were washed three times with 0.2 ml of binding buffer. Twenty-five microliters of buffer alone was added to the wells (non-specific binding). A fixed concentration of ¹²⁵I-anti-PSMA antibody was added to all wells in a volume of 25 μl. Varying concentrations of unlabeled antibody was added to wells in a volume of 25 μl and 25 μl of LNCaP cells (2×10⁶ cells/ml) in binding buffer were added to all wells. The plates were incubated for 2 hours at 200 RPM on a shaker at 4° C. At the completion of the incubation the Millipore plates were washed three times with 0.2 ml of cold wash buffer (24 mM Tris pH 7.2, 500mM NaCl, 2 mM KCl, 2 mM Glucose, 1 mM CaCl₂, 1 mM MgCl₂, 0.1% BSA). The filters were removed and counted in a gamma counter. Evaluation of equilibrium binding was performed using single site binding parameters with the Prism software (San Diego, Calif.). An isotype control antibody was used as a negative control. […]

[6] = target: T2, human prostate specific membrane …; experiment: radioligand competition on LNCaP cells: unlabeled antibody varied against a fixed concentration of 125I-7F12
Description: as §1

| Binder | binding result [1] | EC50 (read off the curve) [1] [µg/mL] | EC50 (read off the curve) [2] [µg/mL] | also measured |
| --- | --- | --- | --- | --- |
| B1 | binds | – | – | binding result [2]: binds |
| B2 | – | – | – | EC50, 3H-thymidine incorporation cell proliferation assay, continuous wash [3]: 64.3 pM; EC50, 3H-thymidine incorporation cell proliferation assay, three-hour wash [3]: 157 pM |
| B3 | – | ~0.04 | ~0.8 | – |
| B4 | binds | – | – | – |
| B5 | – | ~0.04 | ~0.7 | Kd [4]: ~800 pM; IC50 (read off the curve) [5]: 1000 to 2000 pM; IC50 (read off the curve) [6]: ~1000 pM |
